{"source": "patent US20220195012A1", "key": {"AP C3-convertase (C3bBb)": {"biological_target": "AP C3-convertase (C3bBb) (UniProt P01024)", "sequence (P01024 23-667 limits assumed, chain 1 of 3)": "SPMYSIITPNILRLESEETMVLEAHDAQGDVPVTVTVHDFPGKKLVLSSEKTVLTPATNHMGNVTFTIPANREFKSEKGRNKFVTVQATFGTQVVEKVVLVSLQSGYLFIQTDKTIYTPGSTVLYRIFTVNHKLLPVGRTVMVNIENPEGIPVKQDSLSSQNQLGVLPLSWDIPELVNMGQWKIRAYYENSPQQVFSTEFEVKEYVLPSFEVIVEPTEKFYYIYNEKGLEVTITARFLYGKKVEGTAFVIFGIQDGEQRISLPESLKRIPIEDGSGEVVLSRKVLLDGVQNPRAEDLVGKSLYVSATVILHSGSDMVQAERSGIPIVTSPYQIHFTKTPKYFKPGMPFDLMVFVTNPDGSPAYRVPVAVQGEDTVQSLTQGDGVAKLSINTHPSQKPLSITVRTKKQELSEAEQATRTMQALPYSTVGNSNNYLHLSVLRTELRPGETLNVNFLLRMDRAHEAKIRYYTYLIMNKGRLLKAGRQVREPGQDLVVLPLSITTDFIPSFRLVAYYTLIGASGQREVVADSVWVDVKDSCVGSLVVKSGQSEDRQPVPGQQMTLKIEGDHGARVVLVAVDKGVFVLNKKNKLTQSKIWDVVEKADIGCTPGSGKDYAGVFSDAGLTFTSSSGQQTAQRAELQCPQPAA", "sequence (P01024 749-1663 limits assumed, chain 2 of 3)": "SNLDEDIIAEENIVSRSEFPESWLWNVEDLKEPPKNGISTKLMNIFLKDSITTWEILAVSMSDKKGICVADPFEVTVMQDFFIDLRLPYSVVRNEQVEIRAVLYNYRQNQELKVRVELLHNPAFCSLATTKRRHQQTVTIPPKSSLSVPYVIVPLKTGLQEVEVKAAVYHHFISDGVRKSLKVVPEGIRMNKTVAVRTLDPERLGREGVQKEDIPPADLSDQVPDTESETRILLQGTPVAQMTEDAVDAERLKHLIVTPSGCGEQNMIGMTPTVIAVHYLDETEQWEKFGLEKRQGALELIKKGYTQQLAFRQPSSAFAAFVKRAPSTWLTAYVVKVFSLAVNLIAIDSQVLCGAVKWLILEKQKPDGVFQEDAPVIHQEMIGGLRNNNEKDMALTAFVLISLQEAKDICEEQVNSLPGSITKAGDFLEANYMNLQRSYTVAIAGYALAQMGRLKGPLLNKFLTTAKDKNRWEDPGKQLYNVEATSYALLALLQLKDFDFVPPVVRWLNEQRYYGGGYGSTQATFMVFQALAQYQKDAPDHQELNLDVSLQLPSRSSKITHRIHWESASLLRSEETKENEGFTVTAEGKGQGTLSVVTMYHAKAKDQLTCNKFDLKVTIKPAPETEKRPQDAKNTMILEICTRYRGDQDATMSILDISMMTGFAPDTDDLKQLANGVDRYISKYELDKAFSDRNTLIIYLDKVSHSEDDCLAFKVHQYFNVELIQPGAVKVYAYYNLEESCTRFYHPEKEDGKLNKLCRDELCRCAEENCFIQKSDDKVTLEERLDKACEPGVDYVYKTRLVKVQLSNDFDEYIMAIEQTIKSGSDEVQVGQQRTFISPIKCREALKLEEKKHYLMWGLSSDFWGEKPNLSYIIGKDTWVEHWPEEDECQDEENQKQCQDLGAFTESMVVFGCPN", "sequence (P00751 260-764 limits assumed, chain 3 of 3, further chain)": "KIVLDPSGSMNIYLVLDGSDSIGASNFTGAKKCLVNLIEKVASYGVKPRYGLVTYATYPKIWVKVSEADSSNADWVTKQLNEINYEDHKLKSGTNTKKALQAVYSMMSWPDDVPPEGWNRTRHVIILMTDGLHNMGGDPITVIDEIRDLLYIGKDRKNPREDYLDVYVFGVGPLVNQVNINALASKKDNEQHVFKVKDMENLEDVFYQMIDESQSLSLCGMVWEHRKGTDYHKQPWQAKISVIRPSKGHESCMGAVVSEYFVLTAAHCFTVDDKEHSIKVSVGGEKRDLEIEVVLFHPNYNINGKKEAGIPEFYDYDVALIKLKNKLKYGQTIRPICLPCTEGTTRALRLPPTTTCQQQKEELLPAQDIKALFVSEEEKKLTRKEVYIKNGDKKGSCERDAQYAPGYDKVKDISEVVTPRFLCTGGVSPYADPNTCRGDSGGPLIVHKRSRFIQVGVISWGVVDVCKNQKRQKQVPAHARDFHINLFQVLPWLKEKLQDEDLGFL", "test": "cell-based or functional assay"}, "CP C3-convertase (C4b2a)": {"biological_target": "CP C3-convertase (C4b2a) (UniProt P0C0L4)", "sequence (P0C0L4 757-1446 limits assumed, chain 1 of 4)": "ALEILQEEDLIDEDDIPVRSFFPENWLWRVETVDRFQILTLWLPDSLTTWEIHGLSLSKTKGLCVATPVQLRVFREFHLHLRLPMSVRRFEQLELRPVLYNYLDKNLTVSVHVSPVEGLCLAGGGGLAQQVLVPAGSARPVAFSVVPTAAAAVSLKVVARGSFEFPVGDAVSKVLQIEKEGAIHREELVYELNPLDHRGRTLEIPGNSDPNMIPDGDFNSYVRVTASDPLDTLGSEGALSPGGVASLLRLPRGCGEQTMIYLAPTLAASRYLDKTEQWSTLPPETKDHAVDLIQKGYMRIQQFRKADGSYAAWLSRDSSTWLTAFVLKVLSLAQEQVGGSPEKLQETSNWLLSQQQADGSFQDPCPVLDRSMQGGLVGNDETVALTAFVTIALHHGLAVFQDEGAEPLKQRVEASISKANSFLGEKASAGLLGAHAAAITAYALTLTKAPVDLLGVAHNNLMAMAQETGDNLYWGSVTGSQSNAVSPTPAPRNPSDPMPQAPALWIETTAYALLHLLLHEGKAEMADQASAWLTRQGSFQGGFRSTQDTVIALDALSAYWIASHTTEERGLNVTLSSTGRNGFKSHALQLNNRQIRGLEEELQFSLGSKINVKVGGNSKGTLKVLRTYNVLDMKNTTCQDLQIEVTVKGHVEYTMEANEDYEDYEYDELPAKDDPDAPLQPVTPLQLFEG", "sequence (P0C0L4 20-675 limits assumed, chain 2 of 4)": "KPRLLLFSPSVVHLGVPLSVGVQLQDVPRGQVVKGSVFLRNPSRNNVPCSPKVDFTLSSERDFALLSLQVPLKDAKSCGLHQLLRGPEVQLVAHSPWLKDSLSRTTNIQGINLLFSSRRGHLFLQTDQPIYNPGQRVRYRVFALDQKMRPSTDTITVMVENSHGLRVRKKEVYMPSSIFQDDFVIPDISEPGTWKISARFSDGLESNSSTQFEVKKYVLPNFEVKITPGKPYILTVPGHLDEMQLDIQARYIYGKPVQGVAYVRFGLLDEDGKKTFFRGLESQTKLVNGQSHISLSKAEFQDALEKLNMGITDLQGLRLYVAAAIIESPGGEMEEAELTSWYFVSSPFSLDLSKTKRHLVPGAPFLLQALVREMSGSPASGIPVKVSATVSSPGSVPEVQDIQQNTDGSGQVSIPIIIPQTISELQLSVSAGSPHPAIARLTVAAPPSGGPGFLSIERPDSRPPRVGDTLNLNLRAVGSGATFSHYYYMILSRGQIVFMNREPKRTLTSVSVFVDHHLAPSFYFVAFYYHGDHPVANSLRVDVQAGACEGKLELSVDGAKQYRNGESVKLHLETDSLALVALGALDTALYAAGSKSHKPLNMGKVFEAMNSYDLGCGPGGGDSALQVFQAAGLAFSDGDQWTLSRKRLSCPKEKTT", "sequence (P0C0L4 1454-1744 limits assumed, chain 3 of 4)": "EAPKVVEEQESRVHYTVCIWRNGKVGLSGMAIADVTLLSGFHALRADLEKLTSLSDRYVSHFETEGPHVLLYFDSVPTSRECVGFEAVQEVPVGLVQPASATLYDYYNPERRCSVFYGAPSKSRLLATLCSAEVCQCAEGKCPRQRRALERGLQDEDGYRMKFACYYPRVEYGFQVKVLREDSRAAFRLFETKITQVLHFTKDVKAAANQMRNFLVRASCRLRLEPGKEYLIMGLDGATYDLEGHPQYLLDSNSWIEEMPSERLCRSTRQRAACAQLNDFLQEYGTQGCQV", "sequence (P06681 244-752 limits assumed, chain 4 of 4, further chain)": "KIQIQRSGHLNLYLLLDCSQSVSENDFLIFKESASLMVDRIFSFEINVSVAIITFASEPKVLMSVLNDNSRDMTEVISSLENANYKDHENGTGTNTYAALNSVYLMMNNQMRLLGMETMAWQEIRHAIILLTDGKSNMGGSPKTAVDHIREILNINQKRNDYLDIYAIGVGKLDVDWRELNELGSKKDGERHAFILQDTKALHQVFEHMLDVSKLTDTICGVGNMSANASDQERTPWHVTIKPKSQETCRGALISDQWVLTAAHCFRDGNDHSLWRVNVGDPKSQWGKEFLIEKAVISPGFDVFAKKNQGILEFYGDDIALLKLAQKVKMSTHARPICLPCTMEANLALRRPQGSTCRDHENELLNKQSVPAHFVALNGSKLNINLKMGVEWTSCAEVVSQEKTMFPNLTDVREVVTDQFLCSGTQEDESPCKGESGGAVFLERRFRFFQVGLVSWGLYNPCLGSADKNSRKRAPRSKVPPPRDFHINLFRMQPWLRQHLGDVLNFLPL", "test": "cell-based or functional assay"}}, "data": [{"substance": "D2D3D4M4 (DAF-MCP chimera)", "values": [{"measurement": "AP-DAA IC50", "setting": "AP C3-convertase (C3bBb)", "value": 5.6, "unit": "nM"}, {"measurement": "AP-DAA, fold reduction compared to DAF", "setting": "AP C3-convertase (C3bBb)", "value": 10, "unit": "fold"}, {"measurement": "Relative AP-DAA", "setting": "AP C3-convertase (C3bBb)", "value": 0.4}, {"measurement": "CP-DAA IC50", "setting": "CP C3-convertase (C4b2a)", "value": 5.7, "unit": "µM"}, {"measurement": "Relative CP-DAA", "setting": "CP C3-convertase (C4b2a)", "value": 0.4}]}, {"substance": "D2D3 (DAF deletion mutant D2-D3) (from UniProt P08174 98-224)", "values": [{"measurement": "AP-DAA IC50", "setting": "AP C3-convertase (C3bBb)", "value": "> 10", "unit": "nM"}, {"measurement": "Relative AP-DAA", "setting": "AP C3-convertase (C3bBb)", "value": "< 0.2"}, {"measurement": "CP-DAA IC50", "setting": "CP C3-convertase (C4b2a)", "value": 10.9, "unit": "µM"}, {"measurement": "Relative CP-DAA", "setting": "CP C3-convertase (C4b2a)", "value": "< 0.3"}]}]}
